# Article PMC8410055
# Biological target: SARS-CoV-2 spike protein expressed on transfected HEK293T cells (UniProt P0DTC2)
# Assay: flow cytometry on cells
substance,measurement,value
L-SIGN/Fc: extracellular domain of L-SIGN (amino acids 78–399) fused to the human IgG2 Fc domain (from UniProt Q9H2X3) EPN>QPD,response (% Fc binding (positive population)),1.58
